Assay results as given in publication PMC441372.

Target: endogenous gelsolin (mouse (endogenous in osteoclasts)) (UniProt P13020)
Assay: co-IP

Sequence of endogenous gelsolin (mouse (endogenous in osteoclasts)) (P13020 26-780): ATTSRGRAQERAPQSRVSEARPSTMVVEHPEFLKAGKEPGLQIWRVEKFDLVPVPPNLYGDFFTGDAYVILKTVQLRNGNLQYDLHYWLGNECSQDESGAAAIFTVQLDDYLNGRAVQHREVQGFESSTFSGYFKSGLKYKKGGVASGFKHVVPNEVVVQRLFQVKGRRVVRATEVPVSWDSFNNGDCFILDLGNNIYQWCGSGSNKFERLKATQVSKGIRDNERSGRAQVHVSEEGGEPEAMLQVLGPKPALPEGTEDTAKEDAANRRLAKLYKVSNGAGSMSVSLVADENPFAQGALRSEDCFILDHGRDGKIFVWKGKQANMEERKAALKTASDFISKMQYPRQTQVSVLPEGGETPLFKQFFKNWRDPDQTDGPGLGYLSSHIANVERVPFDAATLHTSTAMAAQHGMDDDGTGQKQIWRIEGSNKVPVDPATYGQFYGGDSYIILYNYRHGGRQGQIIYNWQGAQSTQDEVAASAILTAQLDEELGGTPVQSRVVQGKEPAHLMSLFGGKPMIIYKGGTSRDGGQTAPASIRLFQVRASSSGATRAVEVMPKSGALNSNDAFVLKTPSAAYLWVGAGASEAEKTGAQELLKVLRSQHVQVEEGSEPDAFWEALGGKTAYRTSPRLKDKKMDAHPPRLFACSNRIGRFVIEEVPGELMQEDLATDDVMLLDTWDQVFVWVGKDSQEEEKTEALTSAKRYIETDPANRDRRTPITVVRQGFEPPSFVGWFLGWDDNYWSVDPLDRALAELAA

- gelsolin/actin ratio of the EGTA-resistant complex (untransduced, OPN): 0.82
- gelsolin/actin ratio of the EGTA-resistant complex (untransduced, PBS): 1.45
Substance: actin (from UniProt P60710 1-375) (natural protein)
